The values below come from the supplement of paper PMC10567573.

B1: NECAB1 (parent)
chain: NLDTEELCEYFSQHLGEYENVLAA
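Further: lentivirally expressed fusions sorted by FACS into six bins by GFP to DsRed ratio, PSI derived from sequencing read proportions per bin multiplied by bin number.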

Variants of B1 are the subject of the data set. The data set can be described thus: protein stability index of a GFP-peptide fusion (GPS, HEK-293T) (PSI 1-6); higher = more stable. To be noted: c terminus: a fixed tail appended.
NLDTEELCEYFSGHLGEYENVLAA [Q13G]: the protein stability index amounted to 3.3. NLDTEELCEYFSCHLGEYENVLAA [Q13C]: the protein stability index is 2.06. Consider NLDTEELCEYFSFHLGEYENVLAA [Q13F], for which the protein stability index was found to be 2.27. In the case of NLDTEELCEYFSAHLGEYENVLAA [Q13A] it was 2.5. As for NLDTEELCEYFSTHLGEYENVLAA [Q13T], the figure is 3.27. In the case of NLDTEELCEYFSEHLGEYENVLAA [Q13E] it was 2.83; in that of NLDTEELCEYFSSHLGEYENVLAA [Q13S], 2.87; in that of NLDTEELCEYFSQHLGEGENVLAA [Y18G], 4.46. For NLDTEELCEYFSQHLGECENVLAA [Y18C], the protein stability index was 4.03. In the case of NLDTEELCEYFSQHLGEVENVLAA [Y18V] it was 3.14.

As to NLDTEELCEYFSQHLGEFENVLAA [Y18F], the protein stability index is 2.31. Take NLDTEELCEYFSQHLGEEENVLAA [Y18E]: the protein stability index turned out to be 5.13. For the variant NLDTEELCEYFIQHLGEYENVLAA [S12I], the protein stability index stood at 2.68. As for NLDTEELCEYFMQHLGEYENVLAA [S12M], the figure is 1.98; as for NLDTEELCEYFRQHLGEYENVLAA [S12R], 2; as for NLDTMELCEYFSQHLGEYENVLAA [E5M], 1.63. As to NLDTQELCEYFSQHLGEYENVLAA [E5Q], the protein stability index was determined as 1.97.

For NLDTHELCEYFSQHLGEYENVLAA [E5H], the protein stability index was 2.1. Take NLDTYELCEYFSQHLGEYENVLAA [E5Y]: the protein stability index came out at 1.69. As for NLDTIELCEYFSQHLGEYENVLAA [E5I], the figure is 1.99; as for NLDTPELCEYFSQHLGEYENVLAA [E5P], 3.13. NLDTAELCEYFSQHLGEYENVLAA [E5A]: the protein stability index was found to be 1.56. In the case of NLDTNELCEYFSQHLGEYENVLAA [E5N] it was 2.4; in that of NLDTRELCEYFSQHLGEYENVLAA [E5R], 2.13. In the case of NLDTVELCEYFSQHLGEYENVLAA [E5V] it was 2.1; in that of NLDTEELCEYFSQHLGEYENVFAA [L22F], 1.86.

On to NLDTEELCEYFSQHLGEYENVTAA [L22T], for which the protein stability index is 4.36. In the case of NLDTEELCEYFSQHLGEYENVCAA [L22C], the protein stability index is 4.64. In the case of NLDTEELCEYFSQHLGEYENVDAA [L22D] it was 4.98. As for NLDTEELCEYFSQHLGEYCNVLAA [E19C], the figure is 1.83; as for NLDTEELCEYFSQHLGEYSNVLAA [E19S], 2.11; as for NLDTEELCEYFSQHLGEYPNVLAA [E19P], 2.91. As for NLDTEELCEYFSQHLGEYNNVLAA [E19N], the figure is 2.87.

For NLDTEELCEYFSQHLGEYGNVLAA [E19G], the protein stability index came to 2.34. In the case of NLDTEELCEYFSQHLGRYENVLAA [E17R] it was 2.76; in that of NLDTEELCEYFSQHLGFYENVLAA [E17F], 2.33; in that of NLDTEELCEYFSQHLGAYENVLAA [E17A], 2.12. Consider NLDTEELCEYFSQHLGIYENVLAA [E17I], for which the protein stability index is 2.84.

Regarding NLDTEELCEYFSQHLGDYENVLAA [E17D], the protein stability index was 2.88. For the variant NLDTEELYEYFSQHLGEYENVLAA [C8Y], the protein stability index worked out at 3.46. As for NLDTEELIEYFSQHLGEYENVLAA [C8I], the figure is 2.52; as for NLDTEELNEYFSQHLGEYENVLAA [C8N], 4.18. As for NLDTEELLEYFSQHLGEYENVLAA [C8L], the figure is 2.86; as for NLDTEELEEYFSQHLGEYENVLAA [C8E], 4.36. In the case of NLDTEELMEYFSQHLGEYENVLAA [C8M] it was 3.41; in that of NLDTEELQEYFSQHLGEYENVLAA [C8Q], 3.52; in that of NLDTEELVEYFSQHLGEYENVLAA [C8V], 3.04. In the case of NLDTEELAEYFSQHLGEYENVLAA [C8A], the protein stability index amounted to 2.98. As for NLDTEELDEYFSQHLGEYENVLAA [C8D], the figure is 4.39; as for NLDTEELCRYFSQHLGEYENVLAA [E9R], 1.97; as for NLDTEELCYYFSQHLGEYENVLAA [E9Y], 1.76.

Regarding NLDTEELCKYFSQHLGEYENVLAA [E9K], the protein stability index was 2.25. In the case of NLDTEELCNYFSQHLGEYENVLAA [E9N] it was 2.21; in that of NLDTEELCTYFSQHLGEYENVLAA [E9T], 2.3.

For NLDTEELCCYFSQHLGEYENVLAA [E9C], the protein stability index came to 2.55.

For NLDTEELCDYFSQHLGEYENVLAA [E9D], the protein stability index worked out at 3.15.

As to NLDTEELCEYCSQHLGEYENVLAA [F11C], the protein stability index came out at 4.03. In the case of NLDTEELCEYQSQHLGEYENVLAA [F11Q] it was 4.44; in that of NLDTEELCEYYSQHLGEYENVLAA [F11Y], 4.33; in that of NLDTEELCEYSSQHLGEYENVLAA [F11S], 4.65.

Consider NLDTEELCEYKSQHLGEYENVLAA [F11K], for which the protein stability index was 5.08. Consider NLDTEELCEYESQHLGEYENVLAA [F11E], for which the protein stability index is 5.25. In the case of NLYTEELCEYFSQHLGEYENVLAA [D3Y], the protein stability index was found to be 1.94. On to NLTTEELCEYFSQHLGEYENVLAA [D3T], for which the protein stability index came out at 2.57. In the case of NLGTEELCEYFSQHLGEYENVLAA [D3G] it was 1.48; in that of NLCTEELCEYFSQHLGEYENVLAA [D3C], 2.12.

As for NLETEELCEYFSQHLGEYENVLAA [D3E], the protein stability index came to 3.24.

As for NLMTEELCEYFSQHLGEYENVLAA [D3M], the protein stability index stood at 1.88. In the case of NLSTEELCEYFSQHLGEYENVLAA [D3S] it was 2.55. In the case of NLQTEELCEYFSQHLGEYENVLAA [D3Q] it was 1.94. In the case of NLDTEELCEKFSQHLGEYENVLAA [Y10K] it was 4.33; in that of NLDTEELCEQFSQHLGEYENVLAA [Y10Q], 4.67; in that of NLDTEELCELFSQHLGEYENVLAA [Y10L], 4.08.

Take NLDTEELCEVFSQHLGEYENVLAA [Y10V]: the protein stability index was determined as 4.24. As for NLDTEELCERFSQHLGEYENVLAA [Y10R], the figure is 4.08; as for NLDTEELCESFSQHLGEYENVLAA [Y10S], 5.13. In the case of NLDTEELCEWFSQHLGEYENVLAA [Y10W] it was 2.22. For the variant NLDTEELCEIFSQHLGEYENVLAA [Y10I], the protein stability index stood at 3.97. For the variant NLDTEELCECFSQHLGEYENVLAA [Y10C], the protein stability index came out at 4.46. With NLDTEELCEAFSQHLGEYENVLAA [Y10A], the protein stability index stood at 4.25.

For NLDTEELCEHFSQHLGEYENVLAA [Y10H], the protein stability index worked out at 4.12. In the case of NLDTEELCEYFSQHLGEYEPVLAA [N20P] it was 2.32.

On to NLDTEELCEYFSQHLGEYETVLAA [N20T], for which the protein stability index came out at 1.78.
